The values that follow come from PMC11446282.

Changes are numbered by the printed parent chain.

B1: IER2_HUMAN (protein, UniProt Q9BTL4 1-223, looked up)
Immediate early response gene …: MEVQKEAQRIMTLSVWKMYHSRMQRGGLRLHRSLQLSLVMRSARELYLSAKVEALEPEVSLPAALPSDPRLHPPREAESTAETATPDGEHPFPEPMDTQEAPTAEETSACCAPRPAKVSRKRRSSSLSDGGDAGLVPSKKARLEEKEEEEGASSEVADRLQPPPAQAEGAFPNLARVLQRRFSGLLNCSPAAPPTAPPACEAKPACRPADSMLNVLVRAVVAF
B2: ENSA_HUMAN (protein, UniProt O43768 2-121, looked up)
Alpha-endosulfine: SQKQEEENPAEETGEEKQDTQEKEGILPERAEEAKLKAKYPSLGQKPGGSDFLMKRLQKGQKYFDSGDYNMAKAKMKNKQLPSAGPDKNLVTGDHIPTPQDLPQRKSSLVTSKLAGGQVE
B3: FOXC1_HUMAN (protein, UniProt Q12948 1-553, looked up)
Forkhead box protein C1: MQARYSVSSPNSLGVVPYLGGEQSYYRAAAAAAGGGYTAMPAPMSVYSHPAHAEQYPGGMARAYGPYTPQPQPKDMVKPPYSYIALITMAIQNAPDKKITLNGIYQFIMDRFPFYRDNKQGWQNSIRHNLSLNECFVKVPRDDKKPGKGSYWTLDPDSYNMFENGSFLRRRRRFKKKDAVKDKEEKDRLHLKEPPPPGRQPPPAPPEQADGNAPGPQPPPVRIQDIKTENGTCPSPPQPLSPAAALGSGSAAAVPKIESPDSSSSSLSSGSSPPGSLPSARPLSLDGADSAPPPPAPSAPPPHHSQGFSVDNIMTSLRGSPQSAAAELSSGLLASAAASSRAGIAPPLALGAYSPGQSSLYSSPCSQTSSAGSSGGGGGGAGAAGGAGGAGTYHCNLQAMSLYAAGERGGHLQGAPGGAGGSAVDDPLPDYSLPPVTSSSSSSLSHGGGGGGGGGGQEAGHHPAAHQGRLTSWYLNQAGGDLGHLASAAAAAAAAGYPGQQQNFHSVREMFESQRIGLNNSPVNGNSSCQMAFPSSQSLYRTSGAFVYDCSKF
B4: 2ABA_HUMAN (protein, UniProt P63151 2-447, looked up)
Serine/threonine-protein …: AGAGGGNDIQWCFSQVKGAVDDDVAEADIISTVEFNHSGELLATGDKGGRVVIFQQEQENKIQSHSRGEYNVYSTFQSHEPEFDYLKSLEIEEKINKIRWLPQKNAAQFLLSTNDKTIKLWKISERDKRPEGYNLKEEDGRYRDPTTVTTLRVPVFRPMDLMVEASPRRIFANAHTYHINSISINSDYETYLSADDLRINLWHLEITDRSFNIVDIKPANMEELTEVITAAEFHPNSCNTFVYSSSKGTIRLCDMRASALCDRHSKLFEEPEDPSNRSFFSEIISSISDVKFSHSGRYMMTRDYLSVKIWDLNMENRPVETYQVHEYLRSKLCSLYENDCIFDKFECCWNGSDSVVMTGSYNNFFRMFDRNTKRDITLEASRENNKPRTVLKPRKVCASGKRKKDEISVDSLDFNKKILHTAWHPKENIIAVATTNNLYIFQDKVN
B5: AIFM2_HUMAN (protein, UniProt Q9BRQ8 2-373, looked up)
Ferroptosis suppressor …: GSQVSVESGALHVVIVGGGFGGIAAASQLQALNVPFMLVDMKDSFHHNVAALRASVETGFAKKTFISYSVTFKDNFRQGLVVGIDLKNQMVLLQGGEALPFSHLILATGSTGPFPGKFNEVSSQQAAIQAYEDMVRQVQRSRFIVVVGGGSAGVEMAAEIKTEYPEKEVTLIHSQVALADKELLPSVRQEVKEILLRKGVQLLLSERVSNLEELPLNEYREYIKVQTDKGTEVATNLVILCTGIKINSSAYRKAFESRLASSGALRVNEHLQVEGHSNVYAIGDCADVRTPKMAYLAGLHANIAVANIVNSVKQRPLQAYKPGALTFLLSMGRNDGVGQISGFYVGRLMVRLTKSRDLFVSTSWKTMRQSPP
B6: ARP19_HUMAN (protein, UniProt P56211 2-112, looked up)
cAMP-regulated phosphoprotein …: SAEVPEAASAEEQKEMEDKVTSPEKAEEAKLKARYPHLGQKPGGSDFLRKRLQKGQKYFDSGDYNMAKAKMKNKQLPTAAPDKTEVTGDHIPTPQDLPQRKPSLVASKLAG
B7: IER5_HUMAN (protein, UniProt Q5VY09 1-327, looked up)
Immediate early response gene …: MEFKLEAHRIVSISLGKIYNSRVQRGGIKLHKNLLVSLVLRSARQVYLSDPCPGLYLAGPAGTPAPPPQQQPGEPAAGPPAGWGEPPPPAARASWPETEPQPERSSVSDAPRVGDEVPVATVTGVGDVFQGGEADATEAAWSRVEGPRQAAAREAEGTAGGWGVFPEVSRAARRPCGCPLGGEDPPGTPAATPRAACCCAPQPAEDEPPAPPAVCPRKRCAAGVGGGPAGCPAPGSTPLKKPRRNLEQPPSGGEDDDAEEMETGNVANLISIFGSSFSGLLRKSPGGGREEEEGEESGPEAAEPGQICCDKPVLRDMNPWSTAIVAF
B8: ZDS1 L880: ZDS1, L880 to alanine (protein, UniProt P50111 1-915, looked up, variant L880A)
Protein ZDS1: MSNRDNESMLRTTSSDKAIASQRDKRKSEVLIAAQSLDNEIRSVKNLKRLSIGSMDLLIDPELDIKFGGESSGRRSWSGTTSSSASMPSDTTTVNNTRYSDPTPLENLHGRGNSGIESSNKTKQGNYLGIKKGVHSPSRKLNANVLKKNLLWVPANQHPNVKPDNFLELVQDTLQNIQLSDNGEDNDGNSNENNDIEDNGEDKESQSYENKENNTINLNRGLSRHGNASLIRRPSTLRRSYTEFDDNEDDDNKGDSASETVNKVEERISKIKERPVSLRDITEELTKISNSAGLTDNDAITLARTLSMAGSYSDKKDQPQPEGHYDEGDIGFSTSQANTLDDGEFASNMPINNTMTWPERSSLRRSRFNTYRIRSQEQEKEVEQSVDEMKNDDEERLKLTKNTIKVEIDPHKSPFRQQDEDSENMSSPGSIGDFQDIYNHYRQSSGEWEQEMGIEKEAEEVPVKVRNDTVEQDLELREGTTDMVKPSATDDNKETKRHRRRNGWTWLNNKMSREDDNEENQGDDENEENVDSQRMELDNSKKHYISLFNGGEKTEVSNKEEMNNSSTSTATSQTRQKIEKTFANLFRRKPHHKHDASSSPSSSPSSSPSIPNNDAVHVRVRKSKKLGNKSGREPVEPIVLRNRPRPHRHHHSRHGSQKISVKTLKDSQPQQQIPLQPQLEGAIEIEKKEESDSESLPQLQPAVSVSSTKSNSRDREEEEAKKKNKKRSNTTEISNQQHSKHVQKENTDEQKAQLQAPAQEQVQTSVPVQASAPVQNSAPVQTSAPVEASAQTQAPAAPPLKHTSILPPRKLTFADVKKPDKPNSPVQFTDSAFGFPLPLLTVSTVIMFDHRLPINVERAIYRLSHLKLSNSKRGLREQVALSNFMYAYLNLVNHTLYMEQVAHDKEQQQQQQQQP
B9: ZDS1 Y861: ZDS1, Y861 to alanine (protein, UniProt P50111 1-915, looked up, variant Y861A)
Protein ZDS1: B8 Protein ZDS1 with Y861A, A880L
B10: ZDS1 S882: ZDS1, S882 to alanine (protein, UniProt P50111 1-915, looked up, variant S882A)
Protein ZDS1: B8 Protein ZDS1 with A880L, S882A
B11: ZDS1 R858: ZDS1, R858 to alanine (protein, UniProt P50111 1-915, looked up, variant R858A)
Protein ZDS1: B8 Protein ZDS1 with R858A, A880L
B12: ZDS1 I860: ZDS1, I860 to alanine (protein, UniProt P50111 1-915, looked up, variant I860A)
Protein ZDS1: B8 Protein ZDS1 with I860A, A880L
B13: ZDS1 L863: ZDS1, L863 to alanine (protein, UniProt P50111 1-915, looked up, variant L863A)
Protein ZDS1: B8 Protein ZDS1 with L863A, A880L
B14: ZDS1 R862: ZDS1, R862 to alanine (protein, UniProt P50111 1-915, looked up, variant R862A)
Protein ZDS1: B8 Protein ZDS1 with R862A, A880L
B15: ZDS1 L881: ZDS1, L881 to alanine (protein, UniProt P50111 1-915, looked up, variant L881A)
Protein ZDS1: B8 Protein ZDS1 with A880L, L881A

In the first assay the test system is B55α interactors. In words: MS analysis of B55α WT, V228A, I284A, S287A and D340A immunopurifications. The class given is binding, human. The note with it: log2 ratio of interactor abundance, B55α D340A vs WT immunopurification, 4 replicates each, normalised to bait B55α. The method, then: Standard cloning techniques were used throughout. Point mutations were introduced by whole plasmid polymerase chain reaction (PCR). All constructs were fully sequenced. Synthetic DNA was purchased from GeneArt, Life Technologies and cloned into pcDNA5/FRT/TO (Invitrogen) expression vector containing YFP, resulting in the indicated YFP fusion proteins. These constructs were transiently transfected into HeLa cells 24 hours before harvesting cells. Cells were lysed in lysis buffer [50 mM tris-HCl (pH 7.5), 50 mM NaCl, 1 mM EDTA, 1 mM […], and 0.1% NP-40]. Complexes were immunoprecipitated at 4°C in lysis buffer with green fluorescent protein (GFP)–Trap (ChromoTek) and washed in lysis buffer. Precipitated protein complexes were washed three times in lysis buffer, eluted in 2× SDS sample buffer, and subjected to Western blotting or MS as indicated.
Pull-downs were analyzed on a Q-Exactive Plus quadrupole or Fusion Orbitrap Lumos mass spectrometer (Thermo Fisher Scientific) equipped with Easy-nLC 1000 or […] (Thermo Fisher Scientific) and nanospray source (Thermo Fisher Scientific).
Static modifications included carbamidomethylcysteine, and variable modifications included oxidized methionine and STY phosphorylation. Searches were filtered using orthogonal measures including mass measurement accuracy (±3 parts per million), Xcorr for charges from +2 to +4, and dCn targeting a <1% false discovery rate at the peptide level. Quantification of LC-MS/MS spectra was performed using MassChroQ ([57]) and the iBAQ method ([58]). All data were analyzed using R 4.3.0. Missing values were imputed from a normal distribution. […] In each dataset, the abundance of the protein of interest was normalized to be equal across all samples. Statistical analyses were done using a two-tailed Student’s t test.
Regarding B1, the log2_ratio_D340_WT is recorded as -8.18.
Turning to B2, the log2_ratio_D340_WT is reported as -2.08.
Consider B3, for which the log2_ratio_D340_WT is -5.21.
Regarding B4, the log2_ratio_D340_WT was 0.00.
Same read-out and setting: for B5 the value was -0.14.
B6: the log2_ratio_D340_WT is -2.01.
With B7, the log2_ratio_D340_WT was -7.50.

The assay is the same for the next values; noted with them: log2 ratio of interactor abundance, B55α I284A vs WT immunopurification, 4 replicates each, normalised to bait B55α.
With B1, the “log2_ratio I284_WT” value is -0.03.
On the same count and under the same terms, under B2 stands -0.42.
In the case of B3, the “log2_ratio I284_WT” value is -3.45.
On the same count and under the same terms, under B4 stands 0.00.
Still for that read-out and setting: under B5 stands -0.15; under B6, -0.06.
For B7, the “log2_ratio I284_WT” value stood at 0.57.

The same assay, now with this note: log2 ratio of interactor abundance, B55α S287A vs WT immunopurification, 4 replicates each, normalised to bait B55α.
In the case of B1, the “log2_ratio S287_WT” value came to 0.35.
For B2, the “log2_ratio S287_WT” value came to 0.42.
With B3, the “log2_ratio S287_WT” value is recorded as 0.53.
With B4, the “log2_ratio S287_WT” value was found to be 0.00.
Take B5: the “log2_ratio S287_WT” value is on record as 0.33.
The same measure, in the same setting: for B6 the value was 0.27; for B7, -6.37.

The assay is the same for the next values; noted with them: log2 ratio of interactor abundance, B55α V228A vs WT immunopurification, 4 replicates each, normalised to bait B55α.
Turning to B1, the “log2_ratio V228_WT” value is -2.82.
The same measure, in the same setting: for B2 the value was -1.31; for B3, -2.65; for B4, 0.00.
As for B5, the “log2_ratio V228_WT” value is -0.53.
On to B6, for which the “log2_ratio V228_WT” value is recorded as -0.89.
Still for that read-out and setting: under B7 stands -5.72.

A further assay deals with PP2A-B55α. Description: Single alanine mutational scan, YFP-tagged interactors immunoprecipitated from HeLa cells, Western blot. The class given is binding, human. The note with it: single alanine mutant of YFP-tagged ZDS1. On the technique in general: In western blotting, separated proteins are transferred to a membrane and probed.
For the molecule B8, the Experimental % binding is given as 0%.
Still for that read-out and setting: for B9 the value was 42%.
Still for that read-out and setting: for B10 the value was 98%; for B11, 75%.
B12 yielded an Experimental % binding of 60%.
Same read-out and setting: under B13 stands 110%.
The same measure, in the same setting: under B14 stands 32%.
Same read-out and setting: under B15 stands 11%.
